Where no end group is shown, it is not given here.
Tests used:
Hdm2 210-304 [1] = biological target: T1, Hdm2 210-304 (Homo sapiens, UniProt Q00987); assay: Surface plasmon resonance: Arf library peptides binding to immobilized His-tagged Hdm2 210-304; conditions: 15 amino acid peptides; maximal SPR signal after binding for 10 minutes
T1 construct: poly-His (thrombin cleavable, pET28a) (cleaved yes); made in house; host or cells: E. coli BL21(DE3)
Experimental: Surface Plasmon Resonance. Binding studies were performed using a Biacore 3000 surface plasmon resonance (SPR) instrument (Biacore, Inc.). A Tetra-His™ Antibody (Qiagen, Inc.; Cat. #34670) was covalently attached to a carboxymethylated gold surface (C-1 chip; Biacore, Inc.). The carboxymethyl groups on the surface were activated with N-ethyl-N′-(3-dimethylaminopropyl) carbodiimide (EDC) and N-hydroxysuccinimide (NHS) and the antibody was attached at pH 7.4 in 20 mM sodium phosphate buffer, 150 mM NaCl (PBS). Reactive sites remaining on the surface were blocked by reaction with ethanolamine. […] Binding was measured by flowing the non-His-tagged analyte through the reference and ligand-containing flow cells in sequence. […] Changes in the SPR response due to solvent differences and the injection process were monitored by injection of HBS-N buffer alone. […]
Two libraries of peptides 15 amino acids in length were synthesized based on the sequence of exon 1β of mouse p19^Arf and the entire sequence of human p14^Arf. […] The ability of these peptides to bind Hdm2 fragments was determined using the surface plasmon resonance (SPR) technique with a Biacore 3000 instrument. […] Relative binding affinity was judged on the basis of the maximal SPR signal detected after binding for 10 minutes.

Hdm2 210-275 = biological target: T2, Hdm2 210-275 (Homo sapiens, UniProt Q00987); assay: CD-based binding assay, induction of β-strand secondary structure with Hdm2 210-275
T2 construct: poly-His (thrombin cleavable, pET28a) (cleaved yes); made in house; host or cells: E. coli BL21(DE3)
Experimental: (§1) Circular Dichroism. Spectra were recorded at 25° C. using an Aviv Model 62A DS circular dichroism spectropolarimeter (Aviv Instruments, Inc.) equipped with a thermoelectric temperature control unit. All samples were prepared in 10 mM Tris-HCl, pH 7.0 at 0.02-0.2 mM as determined by amino acid analysis. Spectra were recorded using 1 mm quartz cuvettes and reported spectra are the average of 10 scans over the range […]. Melting experiments were recorded in 10 mm quartz cuvettes with active stirring. The signal at 216 nm (β strand minimum) was used to monitor structural changes and the signal was averaged over 15 sec. The sample temperature was increased in 1° C. steps.
β-strand secondary structure forms when Arf and Hdm2 interact. […] This structural transition is induced when mArfN37 is added to an Hdm2 fragment and when an Hdm2 fragment is added to mArfN37. […] In contrast, the uncomplexed species elute at times consistent with monodisperse, conformationally extended polypeptides. Second, NMR resonances for ^15N-mArfN37 or ^15N-Hdm2 210-304 (and ^15N-Hdm2 210-275) are broadened beyond detection when an unlabeled form of the appropriate binding partner is added to the solution. At mArfN37:Hdm2 210-304 (or mArfN37:Hdm2 210-275) molar ratios that produce maximal β-strand secondary structure based on ellipticity at 200 nm using CD, resonances cannot be observed for the isotope-labeled component of Arf/Hdm2 mixtures. Further, the NMR spectra are consistent with slow exchange between the free and bound states.
Characterization of Arf Hdm2 assemblies. As discussed above, the addition of mArfN37 to Hdm2 210-304 results in the formation of supramolecular assemblies comprised of β-strands. Stepwise addition of sub-stoichiometric amounts of mArfN37 to Hdm2 210-304 increased β-strand secondary structure content as judged by the change in ellipticity at 200 nm using CD. […] The binding of mArfN37 to Hdm2 210-304, as monitored in this way, is saturable. Similar results were obtained when mArfN37 was mixed with the shorter fragment of Hdm2, Hdm2 210-275. Further, saturable binding is also observed when the Hdm2 fragments were added to an excess of mArfN37. These findings indicate that there are a limited number of binding sites for mArfN37 within Hdm2 210-304 and that discreet structures (containing β-strands) form when mArfN37 and Hdm2 210-304 (or 210-275) are mixed. […] Similar behavior is observed when mArfN37 binds Hdm2 210-275.

Hdm2 210-304 [2] = biological target: T1, Hdm2 210-304; assay: CD-based binding assay, induction of β-strand secondary structure with Hdm2 210-304
Experimental: as §1, with “C. steps. […]” for “C. steps.”
Characterization of Arf Hdm2 assemblies. […] The binding of mArfN37 to Hdm2 210-304, as monitored in this way, is saturable. […]
To investigate the roles of individual Arf motifs (A1 and A2) and Arf-binding segments of Hdm2 (H1 and H2) in the interactions between Arf and Hdm2 the binding of peptides containing these small segments (A1, A2, H1, or H2) to larger protein fragments of the corresponding binding partner (mArfN37 or Hdm2 210-304) were monitored using the CD-based binding assay. […] Peptides from the Hdm2 library that were positive for mArfN37 binding on the basis of SPR (i.e. those within H1 and H2) were mixed with mArfN37 and binding was monitored in the same manner. […]

T1 sequence (Q00987 210-304): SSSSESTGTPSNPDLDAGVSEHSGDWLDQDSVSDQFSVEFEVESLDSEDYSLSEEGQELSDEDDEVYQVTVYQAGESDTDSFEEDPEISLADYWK
T2 sequence (Q00987 210-275): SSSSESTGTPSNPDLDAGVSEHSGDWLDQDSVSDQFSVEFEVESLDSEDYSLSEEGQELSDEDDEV

Substance	binding of Arf library peptides to Hdm2 210-304 (SPR) (Hdm2 210-304 [1])	induction of β-strand secondary structure/assembly when mixed with Hdm2 210-275 (CD) (Hdm2 210-275)	induction of β-strand secondary structure when mixed with Hdm2 210-304 (CD) (Hdm2 210-304 [2])
human Arf peptide residues 86-100: human p14^Arf library 15-mer spanning residues 86-100, contains the NoLS RRPR (LRRPRHSHPTRARRC; UniProt Q8N726 86-100, looked up, fragment)	binds Hdm2 210-304		
mArfN37: peptide containing the N-terminal 37 amino acids of mouse Arf (p19^Arf residues 1-37, SEQ ID NO:16) (MGRRFLVTVRIQRAGRPLQERVFLVKFVRSRRPRTAS; also: His tag; listed as Mus musculus)		transition from random conformations to β-strand secondary structure	transition from random conformations to β-strand secondary structure
mouse Arf peptide residues 31-45: mouse p19^Arf library 15-mer spanning residues 31-45, contains the RRPR nucleolar localization signal (RRPRTASCALAFVNM; UniProt Q64364 31-45, looked up, fragment)	bind Hdm2 210-304		
